The source of these data is paper PMC3902912.

The target of this data set is T1, CTCF11ZF (UniProt Q61164 266-579).
T1 sequence: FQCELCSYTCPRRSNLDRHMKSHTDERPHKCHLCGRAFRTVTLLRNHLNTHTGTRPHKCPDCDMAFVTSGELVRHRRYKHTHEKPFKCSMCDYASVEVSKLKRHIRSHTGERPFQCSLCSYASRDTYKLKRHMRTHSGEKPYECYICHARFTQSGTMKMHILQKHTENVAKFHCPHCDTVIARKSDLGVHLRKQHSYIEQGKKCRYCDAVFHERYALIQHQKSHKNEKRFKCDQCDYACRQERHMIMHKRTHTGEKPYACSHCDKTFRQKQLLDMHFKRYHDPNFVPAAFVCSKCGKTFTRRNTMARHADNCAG
Nature of the data set: FP competition.

B1: LowOc1_Scrambled (dsDNA)
DNA 1: CCCTGGTCGGTGTGGCTGGCGACACCTCGCACTCTG
DNA 2: CAGAGTGCGAGGTGTCGCCAGCCACACCGACCAGGG
For the molecule B1, the binding result is “no binding”.
